Patent US20220204580A1 (AstraZeneca / MedImmune, published 2022)
Numbered stars: 1 amine (or outer) side, 2 acyl side, 3 side chain; on linkers, the order of the positions; unused ones are H or OH. Bridge positions count the residues as written; N and C are the ends. Square brackets hold non-standard residues; d marks the D form. Side chains are listed from the residue outwards. Ends that are not written are not given here. * marks the point of attachment. C18 diacid = O=C(O)CCCCCCCCCCCCCCCCC(=O)*; γGlu = O=C(O)[C@H](CCC(=O)[*:2])N[*:1]; Aib = CC(C)(N)C(=O)O

T1: human amylin receptor (calcitonin receptor co-expressed with receptor activity modifying protein, RAMP3) (human, UniProt P30988 25-474; O60896 24-148)
T1 sequence (looked up) 1: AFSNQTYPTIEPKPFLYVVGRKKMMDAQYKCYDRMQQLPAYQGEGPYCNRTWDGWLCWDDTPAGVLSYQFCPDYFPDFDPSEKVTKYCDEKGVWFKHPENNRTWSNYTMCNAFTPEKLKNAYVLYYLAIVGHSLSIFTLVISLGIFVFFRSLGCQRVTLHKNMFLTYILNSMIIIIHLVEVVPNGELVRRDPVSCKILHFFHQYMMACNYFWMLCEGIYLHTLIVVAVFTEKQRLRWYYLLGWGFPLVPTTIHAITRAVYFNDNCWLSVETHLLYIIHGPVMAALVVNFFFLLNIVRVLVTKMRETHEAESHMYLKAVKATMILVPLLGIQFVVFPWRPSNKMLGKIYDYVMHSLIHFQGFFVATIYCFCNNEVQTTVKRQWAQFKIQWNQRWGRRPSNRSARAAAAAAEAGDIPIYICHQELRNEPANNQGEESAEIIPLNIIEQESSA
T1 sequence (looked up) 2: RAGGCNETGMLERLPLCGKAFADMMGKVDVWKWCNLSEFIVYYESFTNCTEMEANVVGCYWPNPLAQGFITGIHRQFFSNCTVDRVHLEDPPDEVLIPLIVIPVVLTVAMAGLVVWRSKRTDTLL

T2: human calcitonin receptor (human, UniProt P30988 25-474)
T2 sequence (looked up): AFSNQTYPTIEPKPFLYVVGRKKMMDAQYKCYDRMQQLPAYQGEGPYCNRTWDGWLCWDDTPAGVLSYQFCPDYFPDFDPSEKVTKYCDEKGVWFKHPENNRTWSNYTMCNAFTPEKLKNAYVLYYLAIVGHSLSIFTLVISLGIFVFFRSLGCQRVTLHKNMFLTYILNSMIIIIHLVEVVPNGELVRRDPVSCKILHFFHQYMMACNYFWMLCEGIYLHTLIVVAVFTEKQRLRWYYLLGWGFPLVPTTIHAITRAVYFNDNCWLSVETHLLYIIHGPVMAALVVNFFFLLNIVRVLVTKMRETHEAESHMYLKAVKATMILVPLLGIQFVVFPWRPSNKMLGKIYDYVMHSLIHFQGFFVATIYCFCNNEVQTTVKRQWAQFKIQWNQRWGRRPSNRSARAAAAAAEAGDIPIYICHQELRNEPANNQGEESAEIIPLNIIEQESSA

B1: Peptide 135 (SEQ ID NO: 135) (peptide)
peptide: K([γGlu-C18 diacid])KCNTATCATQRLANFL[Aib]HSSNHFGPILPPTNVGSNTY-NH2
modifications: disulfide 3-8; N-terminus assumed
SMILES: CC[C@H](C)[C@H](NC(=O)[C@@H]1CCCN1C(=O)CNC(=O)[C@H](Cc1ccccc1)NC(=O)[C@H](Cc1c[nH]cn1)NC(=O)[C@H](CC(N)=O)NC(=O)[C@H](CO)NC(=O)[C@H](CO)NC(=O)[C@H](Cc1c[nH]cn1)NC(=O)C(C)(C)NC(=O)[C@H](CC(C)C)NC(=O)[C@H](Cc1ccccc1)NC(=O)[C@H](CC(N)=O)NC(=O)[C@H](C)NC(=O)[C@H](CC(C)C)NC(=O)[C@H](CCCNC(=N)N)NC(=O)[C@H](CCC(N)=O)NC(=O)[C@@H](NC(=O)[C@H](C)NC(=O)[C@@H]1CSSC[C@H](NC(=O)[C@H](CCCCN)NC(=O)[C@@H](N)CCCCNC(=O)CC[C@H](NC(=O)CCCCCCCCCCCCCCCCC(=O)O)C(=O)O)C(=O)N[C@@H](CC(N)=O)C(=O)N[C@@H]([C@@H](C)O)C(=O)N[C@@H](C)C(=O)N[C@@H]([C@@H](C)O)C(=O)N1)[C@@H](C)O)C(=O)N[C@@H](CC(C)C)C(=O)N1CCC[C@H]1C(=O)N1CCC[C@H]1C(=O)N[C@H](C(=O)N[C@@H](CC(N)=O)C(=O)N[C@H](C(=O)NCC(=O)N[C@@H](CO)C(=O)N[C@@H](CC(N)=O)C(=O)N[C@H](C(=O)N[C@@H](Cc1ccc(O)cc1)C(N)=O)[C@@H](C)O)C(C)C)[C@@H](C)O
B2: Peptide 136 (SEQ ID NO: 136) (peptide)
peptide: K([γGlu-C18 diacid])KCNTATCATQRLANFL[Aib]HSSNNFGPILPPTNVGSNTP-NH2
modifications: disulfide 3-8; N-terminus assumed
SMILES: CC[C@H](C)[C@H](NC(=O)[C@@H]1CCCN1C(=O)CNC(=O)[C@H](Cc1ccccc1)NC(=O)[C@H](CC(N)=O)NC(=O)[C@H](CC(N)=O)NC(=O)[C@H](CO)NC(=O)[C@H](CO)NC(=O)[C@H](Cc1c[nH]cn1)NC(=O)C(C)(C)NC(=O)[C@H](CC(C)C)NC(=O)[C@H](Cc1ccccc1)NC(=O)[C@H](CC(N)=O)NC(=O)[C@H](C)NC(=O)[C@H](CC(C)C)NC(=O)[C@H](CCCNC(=N)N)NC(=O)[C@H](CCC(N)=O)NC(=O)[C@@H](NC(=O)[C@H](C)NC(=O)[C@@H]1CSSC[C@H](NC(=O)[C@H](CCCCN)NC(=O)[C@@H](N)CCCCNC(=O)CC[C@H](NC(=O)CCCCCCCCCCCCCCCCC(=O)O)C(=O)O)C(=O)N[C@@H](CC(N)=O)C(=O)N[C@@H]([C@@H](C)O)C(=O)N[C@@H](C)C(=O)N[C@@H]([C@@H](C)O)C(=O)N1)[C@@H](C)O)C(=O)N[C@@H](CC(C)C)C(=O)N1CCC[C@H]1C(=O)N1CCC[C@H]1C(=O)N[C@H](C(=O)N[C@@H](CC(N)=O)C(=O)N[C@H](C(=O)NCC(=O)N[C@@H](CO)C(=O)N[C@@H](CC(N)=O)C(=O)N[C@H](C(=O)N1CCC[C@H]1C(N)=O)[C@@H](C)O)C(C)C)[C@@H](C)O
B3: Peptide 137 (SEQ ID NO: 137) (peptide)
peptide: K([γGlu-C18 diacid])KCNTATCATQRLANFL[Aib]HSSRNFGPILPPTNVGSNTY-NH2
modifications: disulfide 3-8; N-terminus assumed
SMILES: CC[C@H](C)[C@H](NC(=O)[C@@H]1CCCN1C(=O)CNC(=O)[C@H](Cc1ccccc1)NC(=O)[C@H](CC(N)=O)NC(=O)[C@H](CCCNC(=N)N)NC(=O)[C@H](CO)NC(=O)[C@H](CO)NC(=O)[C@H](Cc1c[nH]cn1)NC(=O)C(C)(C)NC(=O)[C@H](CC(C)C)NC(=O)[C@H](Cc1ccccc1)NC(=O)[C@H](CC(N)=O)NC(=O)[C@H](C)NC(=O)[C@H](CC(C)C)NC(=O)[C@H](CCCNC(=N)N)NC(=O)[C@H](CCC(N)=O)NC(=O)[C@@H](NC(=O)[C@H](C)NC(=O)[C@@H]1CSSC[C@H](NC(=O)[C@H](CCCCN)NC(=O)[C@@H](N)CCCCNC(=O)CC[C@H](NC(=O)CCCCCCCCCCCCCCCCC(=O)O)C(=O)O)C(=O)N[C@@H](CC(N)=O)C(=O)N[C@@H]([C@@H](C)O)C(=O)N[C@@H](C)C(=O)N[C@@H]([C@@H](C)O)C(=O)N1)[C@@H](C)O)C(=O)N[C@@H](CC(C)C)C(=O)N1CCC[C@H]1C(=O)N1CCC[C@H]1C(=O)N[C@H](C(=O)N[C@@H](CC(N)=O)C(=O)N[C@H](C(=O)NCC(=O)N[C@@H](CO)C(=O)N[C@@H](CC(N)=O)C(=O)N[C@H](C(=O)N[C@@H](Cc1ccc(O)cc1)C(N)=O)[C@@H](C)O)C(C)C)[C@@H](C)O
B4: Peptide 138 (SEQ ID NO: 138) (peptide)
peptide: K([γGlu-C18 diacid])KCNTATCATQRLANFL[Aib]HSSPNFGPILPPTEVGSNTY-NH2
modifications: disulfide 3-8; N-terminus assumed
SMILES: CC[C@H](C)[C@H](NC(=O)[C@@H]1CCCN1C(=O)CNC(=O)[C@H](Cc1ccccc1)NC(=O)[C@H](CC(N)=O)NC(=O)[C@@H]1CCCN1C(=O)[C@H](CO)NC(=O)[C@H](CO)NC(=O)[C@H](Cc1c[nH]cn1)NC(=O)C(C)(C)NC(=O)[C@H](CC(C)C)NC(=O)[C@H](Cc1ccccc1)NC(=O)[C@H](CC(N)=O)NC(=O)[C@H](C)NC(=O)[C@H](CC(C)C)NC(=O)[C@H](CCCNC(=N)N)NC(=O)[C@H](CCC(N)=O)NC(=O)[C@@H](NC(=O)[C@H](C)NC(=O)[C@@H]1CSSC[C@H](NC(=O)[C@H](CCCCN)NC(=O)[C@@H](N)CCCCNC(=O)CC[C@H](NC(=O)CCCCCCCCCCCCCCCCC(=O)O)C(=O)O)C(=O)N[C@@H](CC(N)=O)C(=O)N[C@@H]([C@@H](C)O)C(=O)N[C@@H](C)C(=O)N[C@@H]([C@@H](C)O)C(=O)N1)[C@@H](C)O)C(=O)N[C@@H](CC(C)C)C(=O)N1CCC[C@H]1C(=O)N1CCC[C@H]1C(=O)N[C@H](C(=O)N[C@@H](CCC(=O)O)C(=O)N[C@H](C(=O)NCC(=O)N[C@@H](CO)C(=O)N[C@@H](CC(N)=O)C(=O)N[C@H](C(=O)N[C@@H](Cc1ccc(O)cc1)C(N)=O)[C@@H](C)O)C(C)C)[C@@H](C)O
B5: Peptide 139 (SEQ ID NO: 139) (peptide)
peptide: K([γGlu-C18 diacid])KCNTATCATQRLANFL[Aib]HSSPNFGPILPPTNVGSETY-NH2
modifications: disulfide 3-8; N-terminus assumed
SMILES: CC[C@H](C)[C@H](NC(=O)[C@@H]1CCCN1C(=O)CNC(=O)[C@H](Cc1ccccc1)NC(=O)[C@H](CC(N)=O)NC(=O)[C@@H]1CCCN1C(=O)[C@H](CO)NC(=O)[C@H](CO)NC(=O)[C@H](Cc1c[nH]cn1)NC(=O)C(C)(C)NC(=O)[C@H](CC(C)C)NC(=O)[C@H](Cc1ccccc1)NC(=O)[C@H](CC(N)=O)NC(=O)[C@H](C)NC(=O)[C@H](CC(C)C)NC(=O)[C@H](CCCNC(=N)N)NC(=O)[C@H](CCC(N)=O)NC(=O)[C@@H](NC(=O)[C@H](C)NC(=O)[C@@H]1CSSC[C@H](NC(=O)[C@H](CCCCN)NC(=O)[C@@H](N)CCCCNC(=O)CC[C@H](NC(=O)CCCCCCCCCCCCCCCCC(=O)O)C(=O)O)C(=O)N[C@@H](CC(N)=O)C(=O)N[C@@H]([C@@H](C)O)C(=O)N[C@@H](C)C(=O)N[C@@H]([C@@H](C)O)C(=O)N1)[C@@H](C)O)C(=O)N[C@@H](CC(C)C)C(=O)N1CCC[C@H]1C(=O)N1CCC[C@H]1C(=O)N[C@H](C(=O)N[C@@H](CC(N)=O)C(=O)N[C@H](C(=O)NCC(=O)N[C@@H](CO)C(=O)N[C@@H](CCC(=O)O)C(=O)N[C@H](C(=O)N[C@@H](Cc1ccc(O)cc1)C(N)=O)[C@@H](C)O)C(C)C)[C@@H](C)O
B6: Peptide 141 (SEQ ID NO: 141) (peptide)
peptide: K([γGlu-C18 diacid])KCNTATCATQRLANFL[Aib]HSSNNFGPILPPTNVGSRTY-NH2
modifications: disulfide 3-8; N-terminus assumed
SMILES: CC[C@H](C)[C@H](NC(=O)[C@@H]1CCCN1C(=O)CNC(=O)[C@H](Cc1ccccc1)NC(=O)[C@H](CC(N)=O)NC(=O)[C@H](CC(N)=O)NC(=O)[C@H](CO)NC(=O)[C@H](CO)NC(=O)[C@H](Cc1c[nH]cn1)NC(=O)C(C)(C)NC(=O)[C@H](CC(C)C)NC(=O)[C@H](Cc1ccccc1)NC(=O)[C@H](CC(N)=O)NC(=O)[C@H](C)NC(=O)[C@H](CC(C)C)NC(=O)[C@H](CCCNC(=N)N)NC(=O)[C@H](CCC(N)=O)NC(=O)[C@@H](NC(=O)[C@H](C)NC(=O)[C@@H]1CSSC[C@H](NC(=O)[C@H](CCCCN)NC(=O)[C@@H](N)CCCCNC(=O)CC[C@H](NC(=O)CCCCCCCCCCCCCCCCC(=O)O)C(=O)O)C(=O)N[C@@H](CC(N)=O)C(=O)N[C@@H]([C@@H](C)O)C(=O)N[C@@H](C)C(=O)N[C@@H]([C@@H](C)O)C(=O)N1)[C@@H](C)O)C(=O)N[C@@H](CC(C)C)C(=O)N1CCC[C@H]1C(=O)N1CCC[C@H]1C(=O)N[C@H](C(=O)N[C@@H](CC(N)=O)C(=O)N[C@H](C(=O)NCC(=O)N[C@@H](CO)C(=O)N[C@@H](CCCNC(=N)N)C(=O)N[C@H](C(=O)N[C@@H](Cc1ccc(O)cc1)C(N)=O)[C@@H](C)O)C(C)C)[C@@H](C)O

Assays:
[1] = target: T1, human amylin receptor (calcitonin …); assay: cell-based or functional assay
[2] = target: T2, human calcitonin receptor; assay: cell-based or functional assay

| Binder | EC50 (cAMP production) [1] | Ratio (EC50 hCTR / EC50 hAMYR3) [1] | EC50 (cAMP production) [2] |
| --- | --- | --- | --- |
| B1 | 0.296 nM | 1.2 | 0.345 nM |
| B2 | 0.122 nM | 0.8 | 0.101 nM |
| B3 | 0.238 nM | 6.3 | 1.5 nM |
| B4 | 0.612 nM | 4.1 | 2.51 nM |
| B5 | 0.285 nM | 3.7 | 1.04 nM |
| B6 | 0.414 nM | 9.5 | 3.95 nM |
